The results in this text go back to paper PMC9730764.

Assay [1] has as its target Bacillus subtilis cysteine desulfurase SufS (B. subtilis) (UniProt O32164).
In assay [2] the target is Staphylococcus aureus cysteine desulfurase SufS (S. aureus USA300_LAC).

Regarding “Staphylococcus aureus sulfurtransferase SufU (from UniProt A0ABV4SS75 2-153) (natural protein)”, the stimulation factor of SufS cysteine desulfurase activity by SufU in assay [1] amounted to 15; in assay [2], 1.5.
